The target of test [1] is T1, human insulin receptor (human, UniProt P06213 28-1382).
T1 construct: whole, on cells
Put plainly: SPA competition vs [125I]-insulin, membranes with human insulin receptor (Example 3); May 29, 2007. How it is done: (§1) Non-specifically bound (NSB) radioactivity was measured in the wells with a four-fold concentration excess of “cold” native ligand than the highest concentration in test samples. Total bound radioactivity was detected in the wells with no competitor. Percent specific binding was calculated as following: % Specific Binding=(Bound-NSB/Total bound-NSB)×100. IC50 values were determined by using Origin software (OriginLab, Northampton, Mass.).

In test [2] the target is T1, human insulin receptor. Put plainly: SPA competition vs [125I]-insulin, membranes with human insulin receptor (Example 3); May 22, 2007. As to the method:
as §1

The target in test [3] is T1, human insulin receptor. Put plainly: SPA competition vs [125I]-insulin, membranes with human insulin receptor (Example 3); May 18, 2007. As to the method: as §1
For test [4], the target named is T1, human insulin receptor. Put plainly: cell-based or functional assay. Also noted: EC50, total phosphorylation, Insulin Receptor (Mar. 31, 2008): unit not given beside the values.
The target in test [5] is T2, human IGF-1 receptor (human, UniProt P08069 31-1367). Put plainly: cell-based or functional assay. Also noted: EC50, total phosphorylation, Insulin Receptor (Mar. 31, 2008): unit not given beside the values.
Test [6] concerns the target T1, human insulin receptor. Put plainly: SPA competition vs [125I]-insulin, membranes with human insulin receptor (Example 3); Dec. 4, 2007. As to the method:
as §1

In test [7] the target is T1, human insulin receptor. Put plainly: SPA competition vs [125I]-insulin, membranes with human insulin receptor (Example 3); Jun. 5, 2008. As to the method:
as §1

The target in test [8] is T1, human insulin receptor. Put plainly: SPA competition vs [125I]-insulin, membranes with human insulin receptor (Example 3); Nov. 9, 2007. As to the method: as §1
Test [9] has as its target T2, human IGF-1 receptor. Put plainly: SPA competition vs [125I]-IGF-1, membranes with human IGF-1 receptor (Example 3); Jun. 4, 2007. As to the method: as §1
Test [10] deals with T2, human IGF-1 receptor. Put plainly: SPA competition vs [125I]-IGF-1, membranes with human IGF-1 receptor (Example 3); Sep. 18, 2007. As to the method:
as §1

Ends that are not written are not given here.

The record followed here is US20110257076A1 (INDIANA UNIVERSITY RESEARCH AND TECHNOLOGY, published 2011).

B1: IGF-1 A:In (1-17)-IGF-1 B (18-30) (ligand)
chain 1: GIVDECCFRSCDLRRLEMYCA-NH2
chain 2: FVNQHLCGSHLVEALYLVCGDRGFYFNKPT-NH2
modifications: disulfide (positions not given here); not fully specified (bridges)
notes: The B chain is a chimera; The conversion is mine
As to B1, the results for the “% native insulin activity (0.6 nM)” value with human insulin receptor [1], in the test with human insulin receptor [2] and with human insulin receptor [3] were 24.2%, 21.7% and 22.5%, respectively. Also, in the test with human insulin receptor [2], the “% insulin (in test)” value was 14%.

B2: IGF-1 A:B(E10 Y16L17)-E31E32 B-COOH (ligand)
chain 1: GIVDECCFRSCDLRRLEMYCA-NH2
chain 2: GPETLCGAELVDALYLVCGDRGFYFNKPTEE-OH
modifications: disulfide (positions not given here); not fully specified (bridges)
Regarding B2, the “EC50, total phosphorylation, Insulin Receptor (Mar. 31, 2008)” value in the test with human insulin receptor [4] stood at 7.

B3: IGF-1 A:B (H5D10Y16L17) DPI (ligand)
chain 1: GIVDECCFRSCDLRRLEMYCA-NH2
chain 2: GPEHLCGADLVDALYLVCGDRGFY-NH2
modifications: disulfide (positions not given here); not fully specified (bridges)
As to B3, in the test with human IGF-1 receptor [5], the “% IGF, total phosphorylation, IGF-1 Receptor” value (“% IGF, total phosphorylation” below) was found to be 7.1%.

B4: IGF-1 A (H8 A9 N21):B(H5D10Y16L17 A22) DPI A-COOH (ligand)
chain 1: GIVDECCHASCDLRRLEMYCN-OH
chain 2: GPEHLCGADLVDALYLVCGDAGFY-NH2
modifications: disulfide (positions not given here); not fully specified (bridges)
In the case of B4, the “% IGF, total phosphorylation” value with human IGF-1 receptor [5] was determined as 7.7%.

B5: IGF-1 A:B(D10Y16L17) DPI A-COOH (ligand)
chain 1: GIVDECCFRSCDLRRLEMYCA-OH
chain 2: GPETLCGADLVDALYLVCGDRGFY-NH2
modifications: disulfide (positions not given here); not fully specified (bridges)
B5: in the test with human IGF-1 receptor [5], the “% IGF, total phosphorylation” value is 112%. In the test with human insulin receptor [4], the “% Insulin, total phosphorylation, Insulin Receptor” value turned out to be 1580%. The figures for the “% native insulin activity (0.6 nM)” value with human insulin receptor [6], in the test with human insulin receptor [7] and in the test with human insulin receptor [8] were 300%, 144% and 231%, respectively.

B6: IGF-1 A (H8 A9 N21):B(H5D10Y16L17) DPI A-COOH (ligand)
chain 1: GIVDECCHASCDLRRLEMYCN-OH
chain 2: GPEHLCGADLVDALYLVCGDRGFY-NH2
modifications: disulfide (positions not given here); not fully specified (bridges)
On to B6, for which the “% IGF, total phosphorylation” value with human IGF-1 receptor [5] amounted to 181%.

B7: IGF-1 A:B(E10Y16L17) (ligand)
chain 1: GIVDECCFRSCDLRRLEMYCA-NH2
chain 2: GPETLCGAELVDALYLVCGDRGFYFNKPT-NH2
modifications: disulfide (positions not given here); not fully specified (bridges)
Take B7: the “% native insulin activity (0.6 nM)” value in the test with human insulin receptor [1] stood at 118%. In addition, in the test with human IGF-1 receptor [9], the “% IGF-1 (in test)” value is 6.8% and the “% native IGF-1 activity (0.55 nM)” value was 7%. Moreover, in the test with human insulin receptor [2], the “% insulin (in test)” value stood at 58.7% and the “% native insulin activity (0.6 nM)” value is 90.9%. Further, the “% IGF, total phosphorylation” value with human IGF-1 receptor [5] turned out to be 13%. For the same molecule, in the test with human insulin receptor [4], the “% Insulin, total phosphorylation, Insulin Receptor” value was found to be 49.2% and the “EC50, total phosphorylation, Insulin Receptor (Mar. 31, 2008)” value was 2.57. In addition, in the test with human IGF-1 receptor [10], the “% IGF-1 (in test)” value stood at 5% and the “% native IGF-1 activity (0.55 nM)” value amounted to 4.5%.
